In patent publication US20190233522A1 (Genmab, published 2019):

Tests used:
AXL [1] = target: T1, AXL (human, UniProt P30530 26-447, limits assumed); assay: not described
T1 construct: neither the species nor the construct used is stated there; also called human AXL protein; UFO

AXL [2] = target: T1, AXL; assay: competition with Gas6; assay not described

T1 sequence (P30530 26-447 limits assumed): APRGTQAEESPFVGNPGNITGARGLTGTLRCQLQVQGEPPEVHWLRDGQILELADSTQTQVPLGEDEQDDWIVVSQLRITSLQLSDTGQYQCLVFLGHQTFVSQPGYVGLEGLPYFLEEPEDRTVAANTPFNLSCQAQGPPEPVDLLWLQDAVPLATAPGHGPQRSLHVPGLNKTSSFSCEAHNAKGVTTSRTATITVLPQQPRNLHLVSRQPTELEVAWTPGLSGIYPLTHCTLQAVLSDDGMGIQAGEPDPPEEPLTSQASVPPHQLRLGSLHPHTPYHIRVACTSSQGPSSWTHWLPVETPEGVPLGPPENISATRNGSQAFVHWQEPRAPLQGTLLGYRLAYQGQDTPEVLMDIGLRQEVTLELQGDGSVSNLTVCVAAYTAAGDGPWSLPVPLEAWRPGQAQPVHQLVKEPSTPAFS

Binder | binding result (AXL [1]) | binding result (AXL [2])
IgG1-AXL-148-vcMMAE (antibody, V domains shown, vcMMAE alkylated to cysteines of the reduced antibody (positions not given), Antibody-drug conjugate of antibody 148 with vcMMAE; IgG1 by name; also called IgG1-1021-148-MMAE; IgG1-AXL-148-MMAE) VH: EVQLLESGGGLVQPGGSLRLSCAASGFTFSSYAMTWVRQAPGKGLEWVSAISISGGSTFYADSVKGRFTISRDNSKNTLYLQMNSLRAEDTAVYYCRGYSGYVYDAFDFWGQGTMVTVSS VL: DIQMTQSPSSLSASVGDRVTITCRASQGISNWLAWYQQKPEKAPKSLIYAASSLQSGVPSRFSGSGSGTDFTLTISSLQPEDFATYYCQQYNSYPLTFGGGTKVEIK | binds | 
IgG1-AXL-061-vcMMAE (antibody, V domains shown, vcMMAE alkylated to cysteines of the reduced antibody (positions not given), Antibody-drug conjugate of antibody 061 with vcMMAE; IgG1 by name) VH: QVQLVQSGAEVKKPGASVKVSCKASGYAFTGYGISWVRQAPGQGLEWIGWISAYNGNTNYVQNLQDRVTMTTDTSTSTAYMELRSLRSDDTAVYYCARDHISMLRGIIIRNYWGQGTLVTVSS VL: not shown | binds | 
IgG1-AXL-061 (antibody, V domains shown, IgG1 by name; Unconjugated antibody) VH: QVQLVQSGAEVKKPGASVKVSCKASGYAFTGYGISWVRQAPGQGLEWIGWISAYNGNTNYVQNLQDRVTMTTDTSTSTAYMELRSLRSDDTAVYYCARDHISMLRGIIIRNYWGQGTLVTVSS VL: not shown |  | binds
IgG1-AXL-107-vcMMAE (antibody, V domains shown, also called HuMax-AXL-ADC; IgG1-1021-107-MMAE) VH: EVQLLESGGGLVQPGGSLRLSCAASGFTFSSYAMNWVRQAPGKGLEWVSTTSGSGASTYYADSVKGRFTISRDNSKNTLYLQMNSLRAEDTAVYYCAKIWIAFDIWGQGTMVTVSS VL: not shown | binds | 
